{"source": "patent US20040110923", "about": "“Nucleic acid binding polypeptides” (published 2004)", "binders": {"B1": {"name": "CXCR4-5-1 target site (dsDNA)", "DNA 1": "CCGCCCCAGCGGCGCATGCGCCGCGCTCGGAGCGTGTT", "DNA 2": "AACACGCTCCGAGCGCGGCGCATGCGCCGCTGGGGCGG"}, "B2": {"name": "CXCR4-10-1 target site (dsDNA)", "DNA 1": "CCGCCCCAGCGGCGCATGCGCCGCGCTCGGAGCGTGTT", "DNA 2": "AACACGCTCCGAGCGCGGCGCATGCGCCGCTGGGGCGG"}, "B3": {"name": "TNFR1 site 4-2 (dsDNA)", "DNA 1": "GTCGGATTGGTGGGTTGGGGGCACAAGGCA", "DNA 2": "TGCCTTGTGCCCCCAACCCACCAATCCGAC"}, "B4": {"name": "TNFR1 site 7-9 / 7-10 (dsDNA)", "DNA 1": "TGGAGGAGGAGGCCACAGGAGGCGGGAGGA", "DNA 2": "TCCTCCCGCCTCCTGTGGCCTCCTCCTCCA"}}, "settings_in_all_cases": "tags: HA tag (YPYDVPDYA) at C-terminus; label: biotin", "key": {"[1]": {"molecular_target": "CXCR4-5-1 six-zinc finger peptide (synthetic construct)", "sequence (chain, as listed by the source)": "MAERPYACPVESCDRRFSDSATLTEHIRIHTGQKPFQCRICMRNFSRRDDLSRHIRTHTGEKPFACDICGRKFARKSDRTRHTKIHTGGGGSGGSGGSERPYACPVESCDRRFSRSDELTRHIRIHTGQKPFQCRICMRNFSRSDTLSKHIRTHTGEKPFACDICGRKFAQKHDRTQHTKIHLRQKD", "experiment": "fluorescence ELISA; 10 nM site, 50 uM ZnCl2, salmon sperm competitor, RT", "procedure": "(§1) DNA binding reactions contained the appropriate zinc finger peptide, biotinylated binding site (10 nM) and 5 μg competitor. DNA (sonicated salmon sperm DNA), in a total volume of 50 μl, which contained: 1×PBS (pH 7.0), 1.25×10⁻³ U high affinity anti-HA-Peroxidase antibody (Boehringer Mannheim), 50 μM ZnCl₂, 0.01 mg/ml BSA, and 0.5% Tween 20. Incubations are performed at room temperature for 40 minutes. Black streptavidin-coated wells are blocked with 4% marvel for 1 hour. Binding reactions are added to the streptavidin-coated wells and incubated for a further 40 minutes at room temperature. Wells are washed 5 times in 100 μl wash buffer (1×PBS (pH 7.0), 50 μM ZnCl₂, 0.01 mg/ml BSA, and 0.5% Tween 20), and finally 50 μl QuantaBlu peroxidase substrate solution (Pierce) is added to detect bound HA-tagged zinc finger peptide. ELISA signals are read in a SPECTRAmax GeminiXS spectrophotometer (Molecular Devices) and analysed using SOFTmax Pro 3.1.2 (Molecular Devices).\n(§2) Zinc finger peptides are expressed using the T7 TNT Quick Coupled Transcription/Translation System for PCR templates (Promega) and assayed for DNA-binding by fluorescence ELISA (see above; FIG. 1). Binding is plotted vertically, on a relative scale. Sequences of the DNA target sites used in each binding reaction are shown below the figure. […]"}, "[2]": {"molecular_target": "CXCR4-10-1 six-zinc finger peptide (synthetic construct)", "sequence (chain, as listed by the source)": "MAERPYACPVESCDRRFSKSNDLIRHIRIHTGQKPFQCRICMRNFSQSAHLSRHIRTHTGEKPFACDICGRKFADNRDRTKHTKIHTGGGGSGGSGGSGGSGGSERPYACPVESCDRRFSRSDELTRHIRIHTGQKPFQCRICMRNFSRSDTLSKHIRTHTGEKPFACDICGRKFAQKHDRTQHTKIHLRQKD", "experiment": "fluorescence ELISA; 10 nM site, 50 uM ZnCl2, salmon sperm competitor, RT", "procedure": "as §1, §2"}, "[3]": {"molecular_target": "TNFR1-9-12 six-zinc finger peptide (synthetic construct)", "sequence (chain, as listed by the source)": "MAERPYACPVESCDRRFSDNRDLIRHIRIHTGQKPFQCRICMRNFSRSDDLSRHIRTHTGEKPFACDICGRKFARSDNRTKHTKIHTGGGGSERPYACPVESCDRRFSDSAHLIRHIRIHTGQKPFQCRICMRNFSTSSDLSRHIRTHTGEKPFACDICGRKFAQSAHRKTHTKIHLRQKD", "experiment": "fluorescence ELISA; control site; signal only in figure, text states specific binding", "procedure": "as §1\n(§3) Zinc finger peptides are expressed using the T7 TNT Quick Coupled Transcription/Translation System for PCR templates (Promega) and assayed for DNA-binding by fluorescence ELISA, as described above in Examples 4 and 6. Sequences of the DNA target sites used in each binding reaction are shown below FIG. 3A."}, "[4]": {"molecular_target": "T1, TNFR1-7-9 six-zinc finger peptide (synthetic construct)", "T1 sequence (chain, as listed by the source)": "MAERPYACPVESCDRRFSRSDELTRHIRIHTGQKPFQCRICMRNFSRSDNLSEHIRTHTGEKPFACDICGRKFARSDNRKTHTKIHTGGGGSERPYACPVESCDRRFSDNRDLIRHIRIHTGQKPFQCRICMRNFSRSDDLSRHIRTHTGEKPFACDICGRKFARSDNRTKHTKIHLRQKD", "experiment": "fluorescence ELISA; control site; signal only in figure, text states specific binding", "procedure": "as §1, §3"}, "[5]": {"molecular_target": "TNFR1-4-2 six-zinc finger peptide (synthetic construct)", "sequence (chain, as listed by the source)": "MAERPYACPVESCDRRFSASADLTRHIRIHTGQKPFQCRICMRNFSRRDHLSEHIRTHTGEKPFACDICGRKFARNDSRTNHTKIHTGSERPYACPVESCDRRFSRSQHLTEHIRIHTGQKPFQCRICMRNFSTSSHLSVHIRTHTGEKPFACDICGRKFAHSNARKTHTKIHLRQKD", "experiment": "fluorescence ELISA; 50 uM ZnCl2, RT", "procedure": "as §1, §3"}, "[6]": {"molecular_target": "T1, TNFR1-7-9 six-zinc finger peptide", "experiment": "fluorescence ELISA; 50 uM ZnCl2, RT", "procedure": "as §1, §3"}}, "data": [{"binder": "B1", "values": [{"measurement": "binding result", "setting": "[1]", "value": "binds"}]}, {"binder": "B2", "values": [{"measurement": "binding result", "setting": "[2]", "value": "binds"}]}, {"binder": "B3", "values": [{"measurement": "binding result", "setting": "[3]", "value": "no binding"}, {"measurement": "binding result", "setting": "[4]", "value": "no binding"}, {"measurement": "binding result", "setting": "[5]", "value": "binds"}]}, {"binder": "B4", "values": [{"measurement": "binding result", "setting": "[6]", "value": "binds"}]}]}
